Broadly, the Kd is the free concentration of one partner at which half of the binding sites on the other are occupied at equilibrium, for simple one-to-one binding.

This note sets out measurements from article PMC11176775, “Impact of DNA ligase 1 and IIIα interactions with APE1 and polβ on the efficiency of base excision repair pathway at the downstream steps”.

Data set [1] addresses T1, DNA ligase 1 (LIG1) (UniProt P18858 1-919). As to the kind of experiment: BLI; range given jointly for polβ, LIG1 and LIGIIIα; LIG1 buffer; BLI (Octet QKe), 20 °C: polβ, APE1, LIGIIIα in 20 mM Hepes pH 7.4, 200 mM NaCl, 0.5% BSA, 0.05% Tween 20; LIG1 in 50 mM Tris-HCl pH 7.5, 100 mM KCl, 1 mM DTT; no Mg2+ listed. The following applies: protein: recombinant; tags: His; label: 3'-biotin on S2; 1-nt gap opposite template C; strands 1 and 2 pair with strand 3; blunt outer ends.

Data set [2] addresses T2, DNA ligase IIIα (LIGIIIα) (UniProt P49916-3 1-922).
T2 sequence: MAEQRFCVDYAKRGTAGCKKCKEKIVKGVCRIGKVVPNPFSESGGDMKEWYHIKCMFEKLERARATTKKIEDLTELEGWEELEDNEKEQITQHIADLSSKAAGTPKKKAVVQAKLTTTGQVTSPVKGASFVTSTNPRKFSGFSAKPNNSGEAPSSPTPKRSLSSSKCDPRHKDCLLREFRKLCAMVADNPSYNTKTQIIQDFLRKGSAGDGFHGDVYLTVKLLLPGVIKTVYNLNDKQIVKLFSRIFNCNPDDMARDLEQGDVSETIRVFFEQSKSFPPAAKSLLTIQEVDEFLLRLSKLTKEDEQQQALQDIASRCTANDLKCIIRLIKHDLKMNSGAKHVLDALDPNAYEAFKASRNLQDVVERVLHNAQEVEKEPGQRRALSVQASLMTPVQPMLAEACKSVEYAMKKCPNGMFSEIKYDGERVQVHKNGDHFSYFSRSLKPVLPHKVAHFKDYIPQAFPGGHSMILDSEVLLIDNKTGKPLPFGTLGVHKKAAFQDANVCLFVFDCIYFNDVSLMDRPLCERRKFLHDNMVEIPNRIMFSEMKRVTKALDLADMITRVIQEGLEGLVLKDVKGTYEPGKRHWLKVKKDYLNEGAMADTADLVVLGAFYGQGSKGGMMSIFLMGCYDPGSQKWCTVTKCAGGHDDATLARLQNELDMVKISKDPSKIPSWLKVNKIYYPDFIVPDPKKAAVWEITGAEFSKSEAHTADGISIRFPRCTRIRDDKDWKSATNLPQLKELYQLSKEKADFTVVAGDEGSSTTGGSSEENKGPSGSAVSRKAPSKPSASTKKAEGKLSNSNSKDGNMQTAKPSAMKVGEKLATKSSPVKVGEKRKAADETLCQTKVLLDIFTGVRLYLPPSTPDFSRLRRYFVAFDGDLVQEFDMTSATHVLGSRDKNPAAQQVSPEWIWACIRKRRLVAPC
Kind of data set: BLI; range given jointly for polβ, LIG1 and LIGIIIα; individual value only in figure; BLI (Octet QKe), 20 °C: polβ, APE1, LIGIIIα in 20 mM Hepes pH 7.4, 200 mM NaCl, 0.5% BSA, 0.05% Tween 20; LIG1 in 50 mM Tris-HCl pH 7.5, 100 mM KCl, 1 mM DTT; no Mg2+ listed. The following applies: protein: recombinant; tags: His; label: 3'-biotin on S2; 1-nt gap opposite template C; strands 1 and 2 pair with strand 3; blunt outer ends.

Data set [3] deals with apurinic/apyrimidinic endonuclease 1 (APE1) (UniProt P27695 1-318). As to the kind of experiment: BLI; BLI (Octet QKe), 20 °C: polβ, APE1, LIGIIIα in 20 mM Hepes pH 7.4, 200 mM NaCl, 0.5% BSA, 0.05% Tween 20; LIG1 in 50 mM Tris-HCl pH 7.5, 100 mM KCl, 1 mM DTT; no Mg2+ listed. The note with it: protein: recombinant, tags: His, strands 1 and 2 pair with strand 3, blunt outer ends. Background: In BLI a coated tip is dipped into the sample, and binding shifts an interference pattern.

For data set [4], the target named is T3, DNA polymerase beta (polβ) (UniProt P06746 1-335). Kind of data set: BLI; range given jointly for polβ, LIG1 and LIGIIIα; individual value only in figure; BLI (Octet QKe), 20 °C: polβ, APE1, LIGIIIα in 20 mM Hepes pH 7.4, 200 mM NaCl, 0.5% BSA, 0.05% Tween 20; LIG1 in 50 mM Tris-HCl pH 7.5, 100 mM KCl, 1 mM DTT; n.
For data set [5], the target named is T3, DNA polymerase beta (polβ). As to the kind of experiment: BLI; BLI (Octet QKe), 20 °C: polβ, APE1, LIGIIIα in 20 mM Hepes pH 7.4, 200 mM NaCl, 0.5% BSA, 0.05% Tween 20; LIG1 in 50 mM Tris-HCl pH 7.5, 100 mM KCl, 1 mM DTT; n.
The target of data set [6] is T1, DNA ligase 1 (LIG1). Kind of data set: BLI; LIG1 buffer; BLI (Octet QKe), 20 °C: polβ, APE1, LIGIIIα in 20 mM Hepes pH 7.4, 200 mM NaCl, 0.5% BSA, 0.05% Tween 20; LIG1 in 50 mM Tris-HCl pH 7.5, 100 mM KCl, 1 mM DTT; no Mg2+ listed. The note with it: protein: recombinant; tags: His; label: 3'-biotin on strand 2; nicked duplex; strands 1 and 2 pair with strand 3; blunt outer ends.

Data set [7] concerns the target T2, DNA ligase IIIα (LIGIIIα). Kind of data set: BLI; BLI (Octet QKe), 20 °C: polβ, APE1, LIGIIIα in 20 mM Hepes pH 7.4, 200 mM NaCl, 0.5% BSA, 0.05% Tween 20; LIG1 in 50 mM Tris-HCl pH 7.5, 100 mM KCl, 1 mM DTT; no Mg2+ listed. The note with it: protein: recombinant; tags: His; label: 3'-biotin on strand 2; nicked duplex; strands 1 and 2 pair with strand 3; blunt outer ends.

B1: one-nucleotide gap DNA (template C) (dsDNA)
DNA 1: CATGGGCGGCATGAACC
DNA 2: GAGGCCCATCCTCACC
DNA 3: GGTGAGGATGGGCCTCCGGTTCATGCCGCCCATG
modifications: 5'-phosphate on S2 at the gap; 3'-OH on S1
For B1, the Kd in data set [1] is around 4.9 nM; in data set [2] it was around 4.9 nM; in data set [3] (label: 3'-biotin on S2, 1-nt gap opposite template C), 70 nM; in data set [4], around 4.9 nM.

B2: nick DNA (3'-dG:C) (dsDNA)
DNA 1: CATGGGCGGCATGAACCG
DNA 2: GAGGCCCATCCTCACC
DNA 3: GGTGAGGATGGGCCTCCGGTTCATGCCGCCCATG
modifications: 5'-phosphate on strand 2 at the nick; 3'-OH on strand 1
As for B2, the Kd was around 20 nM in data set [5]; 3 nM in data set [6]; 200 nM in data set [3] (label: 3'-biotin on strand 2, nicked duplex); around 7 nM in data set [7].
